This is an account of results in paper PMC3919625.

This test concerns the target 2G12 IgG monomer (human). Nature of the test: SEC.

B1: soluble neonatal Fc receptor (FcRn) (receptor)
chain 1: AEPRLPLMYHLAAVSDLSTGLPSFWATGWLGAQQYLTYNNLRQEADPCGAWIWENQVSWYWEKETTDLKSKEQLFLEAIRTLENQINGTFTLQGLLGCELAPDNSSLPTAVFALNGEEFMRFNPRTGNWSGEWPETDIVGNLWMKQPEAARKESEFLLTSCPERLLGHLERGRQNLEWKEPPSMRLKARPGNSGSSVLTCAAFSFYPPELKFRFLRNGLASGSGNCSTGPNGDGSFHAWSLLEVKRGDEHHYQCQVEHEGLAQPLTVDLDSPARSS
chain 2: IQKTPQIQVYSRHPPENGKPNFLNCYVSQFHPPQIEIELLKNGKKIPNIEMSDLSFSKDWSFYILAHTEFTPTETDVYACRVKHVTLKEPKTVTWDRDM
Consider B1, for which the stoichiometry N (FcRn per 2G12 monomer) amounted to 2.
